Source: US20040116675A1 (published 2004)

Key:
[1] = target: T1, sCD28-Fc (extracellular domains of CD28 combined with the CH2 and CH3 domains of IgG1) (human, UniProt P10747 19-152); test: ELISA competition on coated sCD28-Fc against MuTN228-biotin, Expt 2
T1 construct: extracellular domain; not shown: CH2 and CH3 domains of IgG1

[2] = target: T2, CD28 on P815/CD28+ cells (P815 mouse mastocytoma stably transfected with CD28) (human, UniProt P10747 19-220); test: competition against ^125I-labeled MuTN228 on P815/CD28+ cells, Expt 2
T2 construct: whole, on cells; also called CD28 antigen; CD28 molecules on P815/CD28^+ cells

[3] = target: T1, sCD28-Fc (extracellular domains of CD28 …); test: ELISA competition on coated sCD28-Fc against MuTN228-biotin, average of 3 experiments (Std. Dev. 0.14)
[4] = target: T2, CD28 on P815/CD28+ cells (P815 mouse …); test: competition against ^125I-labeled MuTN228 on P815/CD28+ cells, average of 3 experiments (St. Dev. 0.26)
[5] = target: T2, CD28 on P815/CD28+ cells (P815 mouse …); test: competition against ^125I-labeled MuTN228 on P815/CD28+ cells, Expt 1
[6] = target: T1, sCD28-Fc (extracellular domains of CD28 …); test: ELISA competition on coated sCD28-Fc against MuTN228-biotin, Expt 1
[7] = target: T2, CD28 on P815/CD28+ cells (P815 mouse …); test: competition against ^125I-labeled MuTN228 on P815/CD28+ cells, reference MuTN228
[8] = target: T1, sCD28-Fc (extracellular domains of CD28 …); test: ELISA competition on coated sCD28-Fc against MuTN228-biotin, reference MuTN228
[9] = target: T2, CD28 on P815/CD28+ cells (P815 mouse …); test: competition against ^125I-labeled MuTN228 on P815/CD28+ cells, Expt 3

B1: HuTN228 (humanized TN228-IgG2M3) (antibody, V domains shown)
VH: QVQLQESGPGLVKPSETLSLTCAVSGFSLTSYGVHWIRQPPGKGLEWLGVIWPGGGTNFNSALMSRLTISEDTSKNQVSLKLSSVTAADTAVYYCARDRAYGNYLYAMDYWGQGTLVTVSS
VL: DIQMTQSPSSLSASVGDRVTITCRASESVEYYVTSLMQWYQQKPGKAPKLLIYAASNVDSGVPSRFSGSGSGTDFTLTISSLQPEDIATYYCQQSRKVPFTFGGGTKVEIK
IC50 [1]: 0.64 µg/mL
IC50 [2]: 2.43 nM
IC50 [3]: 0.5 µg/mL
IC50 [4]: 2.4 nM
IC50 [5]: 2.65 nM
IC50 [6]: 0.37 µg/mL
fold less apparent binding affinity than MuTN228 [7]: ~2.4 fold
fold less relative binding than MuTN228 [8]: 2.6 fold
IC50 [9]: 2.13 nM
